Reference: US8110187

Tests used:
[1] = molecular target: CLMF receptor on PHA-activated peripheral blood lymphoblasts (human); assay: Scatchard plot analysis of equilibrium binding of 125I-CLMF to PHA-activated lymphoblasts
[2] = molecular target: Cytotoxic Lymphocyte Maturation Factor (CLMF) 75 kDa heterodimer (human) (UniProt P29460); assay: 125I-CLMF binding to PHA-activated lymphoblasts, supernatant at 1/2 dilution; competitor: CLMF receptor on cells

Sequence of CLMF receptor on PHA-activated peripheral blood lymphoblasts (human) (Q99665 24-862, chain 2 of 2, other chains not shown): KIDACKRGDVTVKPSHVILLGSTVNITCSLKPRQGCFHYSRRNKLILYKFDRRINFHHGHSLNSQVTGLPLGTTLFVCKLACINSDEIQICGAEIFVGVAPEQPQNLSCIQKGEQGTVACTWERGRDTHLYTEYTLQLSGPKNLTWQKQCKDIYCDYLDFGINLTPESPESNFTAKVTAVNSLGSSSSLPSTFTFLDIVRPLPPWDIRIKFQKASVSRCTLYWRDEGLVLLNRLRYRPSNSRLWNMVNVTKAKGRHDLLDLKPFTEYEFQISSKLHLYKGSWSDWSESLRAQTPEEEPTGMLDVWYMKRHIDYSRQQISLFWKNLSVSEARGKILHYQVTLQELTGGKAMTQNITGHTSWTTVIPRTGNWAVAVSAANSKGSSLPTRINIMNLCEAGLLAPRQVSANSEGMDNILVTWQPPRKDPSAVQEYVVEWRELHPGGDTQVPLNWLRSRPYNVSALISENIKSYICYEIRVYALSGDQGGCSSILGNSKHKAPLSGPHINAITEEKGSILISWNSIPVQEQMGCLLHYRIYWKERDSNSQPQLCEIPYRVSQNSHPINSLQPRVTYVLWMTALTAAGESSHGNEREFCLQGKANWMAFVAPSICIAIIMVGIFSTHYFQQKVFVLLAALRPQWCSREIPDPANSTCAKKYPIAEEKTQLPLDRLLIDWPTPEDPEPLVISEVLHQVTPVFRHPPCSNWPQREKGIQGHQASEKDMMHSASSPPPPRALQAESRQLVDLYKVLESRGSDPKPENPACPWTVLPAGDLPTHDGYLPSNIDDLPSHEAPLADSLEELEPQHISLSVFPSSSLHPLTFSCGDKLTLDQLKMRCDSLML

Substance | Kd [1] [pM] | % inhibition of 125I-CLMF binding to the lymphoblasts [2] [%]
Cytotoxic Lymphocyte Maturation Factor (CLMF) 75 kDa heterodimer (from UniProt P29460 23-328; P29459 23-219) (ligand) | 200 | –
Control monoclonal antibody | – | 10
